According to PMC5456053:
Blank lines part the entries; values can stand above or below the binder they belong to.

Target: SecYEG-SecDF•YajC (E. coli) (UniProt P0AGA2)

Channel Activity, μA, +YEG: ion current in Xenopus oocytes injected with the fragment, liposomes, SecYEG-SecDF•YajC, pOmpA, ATP-Mg: 3.2 μA
B1: SecA N643 (SecA 1-643) (domain or fragment)
chain: MLIKLLTKVFGSRNDRTLRRMRKVVNIINAMEPEMEKLSDEELKGKTAEFRARLEKGEVLENLIPEAFAVVREASKRVFGMRHFDVQLLGGMVLNERCIAEMRTGEGKTLTATLPAYLNALTGKGVHVVTVNDYLAQRDAENNRPLFEFLGLTVGINLPGMPAPAKREAYAADITYGTNNEYGFDYLRDNMAFSPEERVQRKLHYALVDEVDSILIDEARTPLIISGPAEDSSEMYKRVNKIIPHLIRQEKEDSETFQGEGHFSVDEKSRQVNLTERGLVLIEELLVKEGIMDEGESLYSPANIMLMHHVTAALRAHALFTRDVDYIVKDGEVIIVDEHTGRTMQGRRWSDGLHQAVEAKEGVQIQNENQTLASITFQNYFRLYEKLAGMTGTADTEAFEFSSIYKLDTVVVPTNRPMIRKDLPDLVYMTEAEKIQAIIEDIKERTAKGQPVLVGTISIEKSELVSNELTKAGIKHNVLNAKFHANEAAIVAQAGYPAAVTIATNMAGRGTDIVLGGSWQAEVAALENPTAEQIEKIKADWQVRHDAVLEAGGLHIIGTERHESRRIDNQLRGRSGRQGDAGSSRFYLSMEDALMRIFASDRVSGMMRKLGMKPGEAIEHPWVTKAIANAQRKVESRNFDIRK

Channel Activity, μA, +YEG: ion current in Xenopus oocytes injected with the fragment, liposomes, SecYEG-SecDF•YajC, pOmpA, ATP-Mg: 0.4 μA
B2: SecA N632 (SecA 1-632) (domain or fragment)
chain: MLIKLLTKVFGSRNDRTLRRMRKVVNIINAMEPEMEKLSDEELKGKTAEFRARLEKGEVLENLIPEAFAVVREASKRVFGMRHFDVQLLGGMVLNERCIAEMRTGEGKTLTATLPAYLNALTGKGVHVVTVNDYLAQRDAENNRPLFEFLGLTVGINLPGMPAPAKREAYAADITYGTNNEYGFDYLRDNMAFSPEERVQRKLHYALVDEVDSILIDEARTPLIISGPAEDSSEMYKRVNKIIPHLIRQEKEDSETFQGEGHFSVDEKSRQVNLTERGLVLIEELLVKEGIMDEGESLYSPANIMLMHHVTAALRAHALFTRDVDYIVKDGEVIIVDEHTGRTMQGRRWSDGLHQAVEAKEGVQIQNENQTLASITFQNYFRLYEKLAGMTGTADTEAFEFSSIYKLDTVVVPTNRPMIRKDLPDLVYMTEAEKIQAIIEDIKERTAKGQPVLVGTISIEKSELVSNELTKAGIKHNVLNAKFHANEAAIVAQAGYPAAVTIATNMAGRGTDIVLGGSWQAEVAALENPTAEQIEKIKADWQVRHDAVLEAGGLHIIGTERHESRRIDNQLRGRSGRQGDAGSSRFYLSMEDALMRIFASDRVSGMMRKLGMKPGEAIEHPWVTKAIANAQR

Channel Activity, μA, +YEG: ion current in Xenopus oocytes injected with the fragment, liposomes, SecYEG-SecDF•YajC, pOmpA, ATP-Mg: 1.1 μA
B3: SecA N639* (SecA 1-639, F639D) (domain or fragment)
chain: MLIKLLTKVFGSRNDRTLRRMRKVVNIINAMEPEMEKLSDEELKGKTAEFRARLEKGEVLENLIPEAFAVVREASKRVFGMRHFDVQLLGGMVLNERCIAEMRTGEGKTLTATLPAYLNALTGKGVHVVTVNDYLAQRDAENNRPLFEFLGLTVGINLPGMPAPAKREAYAADITYGTNNEYGFDYLRDNMAFSPEERVQRKLHYALVDEVDSILIDEARTPLIISGPAEDSSEMYKRVNKIIPHLIRQEKEDSETFQGEGHFSVDEKSRQVNLTERGLVLIEELLVKEGIMDEGESLYSPANIMLMHHVTAALRAHALFTRDVDYIVKDGEVIIVDEHTGRTMQGRRWSDGLHQAVEAKEGVQIQNENQTLASITFQNYFRLYEKLAGMTGTADTEAFEFSSIYKLDTVVVPTNRPMIRKDLPDLVYMTEAEKIQAIIEDIKERTAKGQPVLVGTISIEKSELVSNELTKAGIKHNVLNAKFHANEAAIVAQAGYPAAVTIATNMAGRGTDIVLGGSWQAEVAALENPTAEQIEKIKADWQVRHDAVLEAGGLHIIGTERHESRRIDNQLRGRSGRQGDAGSSRFYLSMEDALMRIFASDRVSGMMRKLGMKPGEAIEHPWVTKAIANAQRKVESRND
